From patent US20120178908A1 (Novo Nordisk, published 2012)
Residue numbers refer to the chain shown, from its start. Numbers in names are those of the source. One block for each binder: values may come before it.

Assays:
[1] = biological target: T1, TLT1 (human TLT-1, reagent of the SPR studies, source NN) (human, UniProt Q86YW5 16-162, limits assumed); test: SPR (Biacore), mAb immobilised directly on CM5, TLT1 as analyte
T1 sequence: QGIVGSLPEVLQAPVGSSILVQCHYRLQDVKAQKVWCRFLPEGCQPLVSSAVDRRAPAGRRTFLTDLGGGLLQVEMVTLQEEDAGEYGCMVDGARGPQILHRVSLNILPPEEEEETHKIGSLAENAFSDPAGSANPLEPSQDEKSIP
Procedure: The mAbs of interest were either immobilized directly to a CM5 chip or by capture via a human Fc capture mAb immobilized to a CM5 chip.
Direct capture: The TLT-1 mAbs were immobilised to a level of approx 500-1000 RU on a CM5 chip (50 μg/ml diluted in Na-acetate, pH 4.0) using the standard procedure recommended by the supplier. Two-fold dilutions of TLT1 from 200 nM to 0.2 nM were tested for binding to the mABs. Running and dilution buffer: 10 mM HEPES, 150 mM, 0.005% p20, pH 7.4. Regeneration was obtained by 10 mM Glycine, pH 1.7.

hTLT-1 ECD-HPC4 F54A = biological target: T2, hTLT-1 ECD-HPC4 F54A (human, UniProt Q86YW5 16-162); test: SPR (ProteOn), mAb captured by anti-hFc, 100 nM mutant, signal 10 s after injection normalised to captured mAb
T2 construct: As m27; also called Ala mutant 12
T2 chain: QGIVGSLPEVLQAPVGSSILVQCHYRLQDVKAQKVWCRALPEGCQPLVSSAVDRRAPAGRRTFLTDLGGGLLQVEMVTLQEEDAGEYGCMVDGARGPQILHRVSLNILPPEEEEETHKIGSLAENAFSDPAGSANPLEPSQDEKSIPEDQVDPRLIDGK
Procedure: (§1) Each anti-body was diluted in 10 mM sodium acetate pH 5.0 to a concentration of […], and was immobilized to an individual flow cell at 30 μl/min for 240s. The antibodies were immobilized to flow cells A1-A6 (horizontal direction). After immobilization, the active sites on the flow cell were blocked with 1 M ethanolamine. The final immobilization level of capture antibody typically ranged from approximately 9,000 to 10,000 RU in one experiment. Capture of the anti-TLT1 antibodies 0197-0000-0023, 0197-0000-0051, 0197-0000-0061 and 0197-0000-0062 was conducted by diluting to […] into HBS-EP buffer (10 mM HEPES, 150 mM NaCl, 3 mM EDTA, 0.05% surfactant P20, pH 7.4) and injected at 30 μl/min for 60s in vertical direction, creating interspot reference points with only anti-human Fc antibodies. The final capture level of test antibodies typically ranged from approximately 200 to 300 RU in one experiment. Binding of wt or Ala mutant hTLT-1 ECD-HPC4 protein was conducted by injecting over parallel flow cells in horizontal direction to allow for comparative analyses of binding to different captured anti-TLT1 antibodies relative to binding to the interspot references. Each hTLT-1 ECD-HPC4 protein was diluted to 100 nM, based on the calculated average Mw, into HBS-EP buffer and injected at 30 μl/min for 240s. The GLM chip was regenerated after each injection cycle of analyte via one 18 s injection of 1 M Formic acid followed by a 18s injection of 50 mM NaOH at 100 μl/min. This regeneration step removed the anti-TLT1 antibody and any bound TLT1 from the immobilized capture antibody surface, and allowed for the subsequent binding of the next test sample pair.
(§2) Data analysis was performed using the ProteOn Manager™ Software. No significant non-specific binding to the interspot control surfaces was observed. Binding curves were processed by double referencing (subtraction of interspot control surface signals as well as blank buffer injections over captured anti-TLT1 antibodies). This allowed correction for instrument noise, bulk shift and drift during sample injections. Binding signal at 10 s after stop of analyte injection was normalized to level of captured anti-TLT1 antibody and presented as binding relative to wt hTLT-1 ECD-HPC4 protein.

hTLT-1 ECD-HPC4 M91A = biological target: T3, hTLT-1 ECD-HPC4 M91A (human, UniProt Q86YW5 16-162); test: as above
T3 construct: As m27; also called Ala mutant 24
T3 chain: T2 chain with A39F, M76A
Procedure: as §1, §2

hTLT-1 ECD-HPC4 R41A = biological target: T4, hTLT-1 ECD-HPC4 R41A (human, UniProt Q86YW5 16-162); test: as above
T4 construct: As m27; also called Ala mutant 7
T4 chain: T2 chain with R26A, A39F
Procedure: as §1, §2

hTLT-1 ECD-HPC4 L42A = biological target: T5, hTLT-1 ECD-HPC4 L42A (human, UniProt Q86YW5 16-162); test: as above
T5 construct: As m27; also called Ala mutant 8
T5 chain: T2 chain with L27A, A39F
Procedure: as §1, §2

hTLT-1 ECD-HPC4 Q43A = biological target: T6, hTLT-1 ECD-HPC4 Q43A (human, UniProt Q86YW5 16-162); test: as above
T6 construct: As m27; also called Ala mutant 9
T6 chain: T2 chain with Q28A, A39F
Procedure: as §1, §2

hTLT-1 ECD-HPC4 R110A = biological target: T7, hTLT-1 ECD-HPC4 R110A (human, UniProt Q86YW5 16-162); test: as above
T7 construct: As m27; also called Ala mutant 30
T7 chain: T2 chain with A39F, R95A
Procedure: as §1, §2

hTLT-1 ECD-HPC4 H116A = biological target: T8, hTLT-1 ECD-HPC4 H116A (human, UniProt Q86YW5 16-162); test: as above
T8 construct: As m27; also called Ala mutant 31
T8 chain: T2 chain with A39F, H101A
Procedure: as §1, §2

hTLT-1 ECD-HPC4 K46A = biological target: T9, hTLT-1 ECD-HPC4 K46A (human, UniProt Q86YW5 16-162); test: as above
T9 construct: As m27; also called Ala mutant 10
T9 chain: T2 chain with K31A, A39F
Procedure: as §1, §2

[2] = biological target: T10, hTLT-1.126-162 (TLT-1 stalk peptide) (human); test: crystal structure of the Fab0100:hTLT-1.126-162 complex
T10 construct: Made by solid phase peptide synthesis; not glycosylated; also called chain P of the crystal structure
T10 peptide: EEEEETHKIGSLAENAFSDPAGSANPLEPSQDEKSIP
Description: Crystallogr. 40, 658-674) of the CCP4 suite (Bailey,S. (1994) Acta Crystallogr. Sect. D-Biol. Crystallogr. 50, 760-763). […] Additional crystallographic refinements, using the REFMAC5 software program (Murshudov, G. N. et al. Acta Crystallogr. Sect. D-Biol. Crystallogr. 53, 240-255), followed by computer graphics inspection of the electron density maps, model corrections and building, using the COOT software program (Emsley, P. et al. Acta Crystallogr. Sect. D-Biol. Crystallogr. 60, 2126-2132), were applied. The procedure was cycled until no further significant improvements could be made to the model.
The crystal was allowed to soak for about 15 seconds, then flash frozen in liquid N₂ and during data collection kept at 100 K by a cryogenic N₂ gas stream. Crystallographic data were subsequently collected to 1.85 Å resolution at beam-line BL911-3 (Ursby, T. et al. (2004) AIP Conference Proceedings 705, 1241-1246) at MAX-lab, Lund, Sweden. Space group determination, integration and scaling of the data were made in the XDS software package. Cell parameters for the synchrotron data were determined to be 82.54, 65.32, 108.05 Å, 90°, 95.15° and 90°, for a, b, c, α, β and γ, respectively, and space group was determined to be C2. Rsym for intensities of the data set was calculated to be 6.7%. […]

Kd [1]: 4.12 nM | koff [1]: 0.00134 s⁻¹ | kon [1]: 326000 M⁻¹ s⁻¹ | binding relative to wt hTLT-1 ECD-HPC4 (hTLT-1 ECD-HPC4 F54A): < 0.6 fraction of wt binding | binding relative to wt hTLT-1 ECD-HPC4 (hTLT-1 ECD-HPC4 M91A): < 0.4 fraction of wt binding | binding relative to wt hTLT-1 ECD-HPC4 (hTLT-1 ECD-HPC4 R41A): < 0.2 fraction of wt binding | binding relative to wt hTLT-1 ECD-HPC4 (hTLT-1 ECD-HPC4 L42A): < 0.6 fraction of wt binding | binding relative to wt hTLT-1 ECD-HPC4 (hTLT-1 ECD-HPC4 Q43A): < 0.4 fraction of wt binding | binding relative to wt hTLT-1 ECD-HPC4 (hTLT-1 ECD-HPC4 R110A): < 0.2 fraction of wt binding | binding relative to wt hTLT-1 ECD-HPC4 (hTLT-1 ECD-HPC4 H116A): < 0.6 fraction of wt binding
B1: mAb 0062 HC2; LC2 (antibody, V domains shown)
VH: QVQLQQSGAEPMKPGASVKISCKATGYTFSSHWIEWIKQRPGHGLEWIGEILPGSGNTNYNEKFKGKATFTADTSSNTAYMQLSSLTSEDSAVYYCARGYYGLNYDWYFDVWGAGTTVTVSS
VL: DIQMTQTTSSLSASLGDRVTISCRASQDISNYLNWYQQKPDGTVKLLIFYTSRLHSGVPSRFSGSGSGTDYSLTISNLEPEDIATYYCQQDTKLPYTFGGGTKLEMKR
notes: also called 0197-0000-0062; 0052HC.C91Y + 0052LC

Kd [1]: 4.36 nM | koff [1]: 0.00125 s⁻¹ | kon [1]: 287000 M⁻¹ s⁻¹ | binding relative to wt hTLT-1 ECD-HPC4 (hTLT-1 ECD-HPC4 M91A): < 0.4 fraction of wt binding | binding relative to wt hTLT-1 ECD-HPC4 (hTLT-1 ECD-HPC4 L42A): < 0.2 fraction of wt binding | binding relative to wt hTLT-1 ECD-HPC4 (hTLT-1 ECD-HPC4 Q43A): < 0.2 fraction of wt binding | binding relative to wt hTLT-1 ECD-HPC4 (hTLT-1 ECD-HPC4 R110A): < 0.2 fraction of wt binding | binding relative to wt hTLT-1 ECD-HPC4 (hTLT-1 ECD-HPC4 K46A): < 0.2 fraction of wt binding
B2: mAb 0023 HC2; LC2 (antibody, V domains shown)
VH: EVRLVESGGGLVQPGGSLKLSCATSGFTFSDYFMYWIRQTPEKRLEWVAYISNGGDSSSYPDTVKGRFTISRDNAKNTLYLQMSRLKSEDTAMYYCATNKNWDDYYDMDYWGQGTSVTVSS
VL: DIVVSQSPSSLAVSAGEKVTMSCKSSQSLLNSRTRKNYLAWYQQKPGQSPKLLIYWASTRESGVPDRFTGSGSGTDFTLTISSVQAEDLAVYYCKQSYNLLTFGAGTKLELKR
notes: also called 0197-0000-0023

binding result [2]: binds
B3: Fab0100 (anti-TLT-1 Fab) (Fab, V domains shown)
VH: EVKLLESGGGLVQPGGSLKLSCAASGFDFSRYWMTWVRQAPGKGLEWIGEINPDSSTINYNPSLKDKFIISRDNAKNTLYLQMSEVRSEDTALYYCASGVFTSWGQGTLVTVSA
VL: DVVMTQTPLSLPVSLGDQASISCRSSQSLVHRNGNTYFHWALQKPGQSPKLLIYKVSNRFSGVPDRFSGSGSGTDFTLKISRVEAEDLGVYFCSQSTHVPYTFGGGTKLEIKR
notes: also called Fab 0061 (Fab 0012-LC.C36A; VH.T60N-CH1)
